Measurements reported in US20180009871A1 (INTARCIA THERAPEUTICS, published 2018).
Where no end group is shown, it is not given here. [ ]: non-standard residue; d: D form. Aib = CC(C)(N)C(=O)O

T1: hGIPR (human, UniProt P48546 22-466, limits assumed)
T1 sequence (looked up): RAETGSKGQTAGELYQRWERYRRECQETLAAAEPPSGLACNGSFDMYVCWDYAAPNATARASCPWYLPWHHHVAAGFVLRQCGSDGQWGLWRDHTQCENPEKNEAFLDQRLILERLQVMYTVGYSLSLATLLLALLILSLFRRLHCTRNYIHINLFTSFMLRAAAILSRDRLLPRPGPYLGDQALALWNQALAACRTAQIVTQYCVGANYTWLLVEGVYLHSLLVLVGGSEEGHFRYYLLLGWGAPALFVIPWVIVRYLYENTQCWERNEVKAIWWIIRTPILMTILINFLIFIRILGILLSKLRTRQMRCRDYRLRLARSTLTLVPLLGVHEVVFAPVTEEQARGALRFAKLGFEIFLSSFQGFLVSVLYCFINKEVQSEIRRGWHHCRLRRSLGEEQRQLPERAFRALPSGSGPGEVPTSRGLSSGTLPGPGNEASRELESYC

B1: Compound A1 (peptide)
peptide: YSHGTFTSDYSKYLD[Aib]KYAQEFV[Aib]WLEDEPSSGAPPPS-OH
modifications: N-terminus assumed
SMILES: CC(C)C[C@H](NC(=O)[C@H](Cc1ccc(O)cc1)NC(=O)[C@H](CCCCN)NC(=O)[C@H](CO)NC(=O)[C@H](Cc1ccc(O)cc1)NC(=O)[C@H](CC(=O)O)NC(=O)[C@H](CO)NC(=O)[C@@H](NC(=O)[C@H](Cc1ccccc1)NC(=O)[C@@H](NC(=O)CNC(=O)[C@H](Cc1c[nH]cn1)NC(=O)[C@H](CO)NC(=O)[C@@H](N)Cc1ccc(O)cc1)[C@@H](C)O)[C@@H](C)O)C(=O)N[C@@H](CC(=O)O)C(=O)NC(C)(C)C(=O)N[C@@H](CCCCN)C(=O)N[C@@H](Cc1ccc(O)cc1)C(=O)N[C@@H](C)C(=O)N[C@@H](CCC(N)=O)C(=O)N[C@@H](CCC(=O)O)C(=O)N[C@@H](Cc1ccccc1)C(=O)N[C@H](C(=O)NC(C)(C)C(=O)N[C@@H](Cc1c[nH]c2ccccc12)C(=O)N[C@@H](CC(C)C)C(=O)N[C@@H](CCC(=O)O)C(=O)N[C@@H](CC(=O)O)C(=O)N[C@@H](CCC(=O)O)C(=O)N1CCC[C@H]1C(=O)N[C@@H](CO)C(=O)N[C@@H](CO)C(=O)NCC(=O)N[C@@H](C)C(=O)N1CCC[C@H]1C(=O)N1CCC[C@H]1C(=O)N1CCC[C@H]1C(=O)N[C@@H](CO)C(=O)O)C(C)C
B2: Compound A2 (peptide)
peptide: YSHGTFTSDYSKYLD[Aib]KSAQEFV[Aib]WLEDEPSSGAPPPS-OH
modifications: N-terminus assumed
SMILES: CC(C)C[C@H](NC(=O)[C@H](Cc1ccc(O)cc1)NC(=O)[C@H](CCCCN)NC(=O)[C@H](CO)NC(=O)[C@H](Cc1ccc(O)cc1)NC(=O)[C@H](CC(=O)O)NC(=O)[C@H](CO)NC(=O)[C@@H](NC(=O)[C@H](Cc1ccccc1)NC(=O)[C@@H](NC(=O)CNC(=O)[C@H](Cc1c[nH]cn1)NC(=O)[C@H](CO)NC(=O)[C@@H](N)Cc1ccc(O)cc1)[C@@H](C)O)[C@@H](C)O)C(=O)N[C@@H](CC(=O)O)C(=O)NC(C)(C)C(=O)N[C@@H](CCCCN)C(=O)N[C@@H](CO)C(=O)N[C@@H](C)C(=O)N[C@@H](CCC(N)=O)C(=O)N[C@@H](CCC(=O)O)C(=O)N[C@@H](Cc1ccccc1)C(=O)N[C@H](C(=O)NC(C)(C)C(=O)N[C@@H](Cc1c[nH]c2ccccc12)C(=O)N[C@@H](CC(C)C)C(=O)N[C@@H](CCC(=O)O)C(=O)N[C@@H](CC(=O)O)C(=O)N[C@@H](CCC(=O)O)C(=O)N1CCC[C@H]1C(=O)N[C@@H](CO)C(=O)N[C@@H](CO)C(=O)NCC(=O)N[C@@H](C)C(=O)N1CCC[C@H]1C(=O)N1CCC[C@H]1C(=O)N1CCC[C@H]1C(=O)N[C@@H](CO)C(=O)O)C(C)C
B3: Compound A6 (peptide)
peptide: WSQGTFTSDYSKYLD[Aib]KRAQEFV[Aib]WLEDEPSSGAPPPS-OH
modifications: N-terminus assumed
SMILES: CC(C)C[C@H](NC(=O)[C@H](Cc1ccc(O)cc1)NC(=O)[C@H](CCCCN)NC(=O)[C@H](CO)NC(=O)[C@H](Cc1ccc(O)cc1)NC(=O)[C@H](CC(=O)O)NC(=O)[C@H](CO)NC(=O)[C@@H](NC(=O)[C@H](Cc1ccccc1)NC(=O)[C@@H](NC(=O)CNC(=O)[C@H](CCC(N)=O)NC(=O)[C@H](CO)NC(=O)[C@@H](N)Cc1c[nH]c2ccccc12)[C@@H](C)O)[C@@H](C)O)C(=O)N[C@@H](CC(=O)O)C(=O)NC(C)(C)C(=O)N[C@@H](CCCCN)C(=O)N[C@@H](CCCNC(=N)N)C(=O)N[C@@H](C)C(=O)N[C@@H](CCC(N)=O)C(=O)N[C@@H](CCC(=O)O)C(=O)N[C@@H](Cc1ccccc1)C(=O)N[C@H](C(=O)NC(C)(C)C(=O)N[C@@H](Cc1c[nH]c2ccccc12)C(=O)N[C@@H](CC(C)C)C(=O)N[C@@H](CCC(=O)O)C(=O)N[C@@H](CC(=O)O)C(=O)N[C@@H](CCC(=O)O)C(=O)N1CCC[C@H]1C(=O)N[C@@H](CO)C(=O)N[C@@H](CO)C(=O)NCC(=O)N[C@@H](C)C(=O)N1CCC[C@H]1C(=O)N1CCC[C@H]1C(=O)N1CCC[C@H]1C(=O)N[C@@H](CO)C(=O)O)C(C)C
B4: Compound A1 (peptide)
peptide: YSHGTFTSDYSKYLD[Aib]KYAQEFV[Aib]WLEDEPSSGAPPPS-OH
modifications: N-terminus assumed
SMILES: CC(C)C[C@H](NC(=O)[C@H](Cc1ccc(O)cc1)NC(=O)[C@H](CCCCN)NC(=O)[C@H](CO)NC(=O)[C@H](Cc1ccc(O)cc1)NC(=O)[C@H](CC(=O)O)NC(=O)[C@H](CO)NC(=O)[C@@H](NC(=O)[C@H](Cc1ccccc1)NC(=O)[C@@H](NC(=O)CNC(=O)[C@H](Cc1c[nH]cn1)NC(=O)[C@H](CO)NC(=O)[C@@H](N)Cc1ccc(O)cc1)[C@@H](C)O)[C@@H](C)O)C(=O)N[C@@H](CC(=O)O)C(=O)NC(C)(C)C(=O)N[C@@H](CCCCN)C(=O)N[C@@H](Cc1ccc(O)cc1)C(=O)N[C@@H](C)C(=O)N[C@@H](CCC(N)=O)C(=O)N[C@@H](CCC(=O)O)C(=O)N[C@@H](Cc1ccccc1)C(=O)N[C@H](C(=O)NC(C)(C)C(=O)N[C@@H](Cc1c[nH]c2ccccc12)C(=O)N[C@@H](CC(C)C)C(=O)N[C@@H](CCC(=O)O)C(=O)N[C@@H](CC(=O)O)C(=O)N[C@@H](CCC(=O)O)C(=O)N1CCC[C@H]1C(=O)N[C@@H](CO)C(=O)N[C@@H](CO)C(=O)NCC(=O)N[C@@H](C)C(=O)N1CCC[C@H]1C(=O)N1CCC[C@H]1C(=O)N1CCC[C@H]1C(=O)N[C@@H](CO)C(=O)O)C(C)C
B5: Compound A4 (peptide)
peptide: YSHGTFTSDYSKYLD[Aib]KRAQEFVIWLEDEPSSGAPPPS-OH
modifications: N-terminus assumed
SMILES: CC[C@H](C)[C@H](NC(=O)[C@@H](NC(=O)[C@H](Cc1ccccc1)NC(=O)[C@H](CCC(=O)O)NC(=O)[C@H](CCC(N)=O)NC(=O)[C@H](C)NC(=O)[C@H](CCCNC(=N)N)NC(=O)[C@H](CCCCN)NC(=O)C(C)(C)NC(=O)[C@H](CC(=O)O)NC(=O)[C@H](CC(C)C)NC(=O)[C@H](Cc1ccc(O)cc1)NC(=O)[C@H](CCCCN)NC(=O)[C@H](CO)NC(=O)[C@H](Cc1ccc(O)cc1)NC(=O)[C@H](CC(=O)O)NC(=O)[C@H](CO)NC(=O)[C@@H](NC(=O)[C@H](Cc1ccccc1)NC(=O)[C@@H](NC(=O)CNC(=O)[C@H](Cc1c[nH]cn1)NC(=O)[C@H](CO)NC(=O)[C@@H](N)Cc1ccc(O)cc1)[C@@H](C)O)[C@@H](C)O)C(C)C)C(=O)N[C@@H](Cc1c[nH]c2ccccc12)C(=O)N[C@@H](CC(C)C)C(=O)N[C@@H](CCC(=O)O)C(=O)N[C@@H](CC(=O)O)C(=O)N[C@@H](CCC(=O)O)C(=O)N1CCC[C@H]1C(=O)N[C@@H](CO)C(=O)N[C@@H](CO)C(=O)NCC(=O)N[C@@H](C)C(=O)N1CCC[C@H]1C(=O)N1CCC[C@H]1C(=O)N1CCC[C@H]1C(=O)N[C@@H](CO)C(=O)O
B6: Compound A3 (peptide)
peptide: YSQGTFTSDYSKYLDAARAQEFVKWLEDEPKSKSPPPS-NH2
B7: Compound A5 (peptide)
peptide: YSHGTFTSDYSKYLDSARAQEFVKWLEDEPSSGAPPPS-NH2

Columns and labels:
Experiment in all cases: cell-based or functional assay
[1] = target: human GLP-1 receptor (GLP-1R) (human, UniProt P43220 24-463)
Target sequence in this assay (P43220 24-463): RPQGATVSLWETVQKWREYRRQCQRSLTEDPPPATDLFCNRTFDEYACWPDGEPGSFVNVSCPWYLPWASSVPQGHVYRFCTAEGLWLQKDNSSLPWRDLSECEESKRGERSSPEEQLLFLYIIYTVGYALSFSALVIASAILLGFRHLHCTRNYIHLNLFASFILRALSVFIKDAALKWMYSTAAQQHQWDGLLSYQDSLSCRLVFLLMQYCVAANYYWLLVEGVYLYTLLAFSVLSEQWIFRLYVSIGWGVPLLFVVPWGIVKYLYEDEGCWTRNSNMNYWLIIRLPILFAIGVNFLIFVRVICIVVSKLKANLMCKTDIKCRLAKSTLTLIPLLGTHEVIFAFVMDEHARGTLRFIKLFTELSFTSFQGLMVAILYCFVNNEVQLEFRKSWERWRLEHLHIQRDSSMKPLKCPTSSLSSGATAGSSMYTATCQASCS

[2] = target: human glucagon receptor (GCGR) (human, UniProt P47871 26-477)
[3] = target: T2, human glucagon receptor (GCGR) (human, UniProt P47871 26-477); remark: listed apart in the source
[4] = target: T3, human GLP-1 receptor (GLP-1R) (human, UniProt P43220 24-463); remark: listed apart in the source
T3 sequence (P43220 24-463): as above

hGIPR = target: T1, hGIPR
[5] = target: T2, human glucagon receptor (GCGR); remark: listed apart in the source
[6] = target: T3, human GLP-1 receptor (GLP-1R); remark: listed apart in the source

Binder | hGLP1 pEC50 (cAMP) mean (n = 9): 11 point curve starting at 500 uM [1] [pEC50] | hGCGR pEC50 (cAMP) mean (n = 9): 11 point curve starting at 1 uM [2] [pEC50] | further results
B1 | 5.2 | 12.3 | –
B2 | 5.4 | 11.7 | –
B3 | 5.3 | 11.7 | –
B4 | – | – | Human in vitro Potency (pEC50), hGCGR [3]: 12.3 pEC50; Human in vitro Potency (pEC50), hGLP-1R [4]: 5.2 pEC50; Human in vitro Potency (pEC50), hGIPR (hGIPR): < 5 pEC50; GluR pEC 50 [5]: 10.6 pEC50; GLP-1R pEC 50 [6]: < 6 pEC50
B5 | < 5 | 11.8 | –
B6 | 6.7 | 12.1 | –
B7 | 5.8 | 11.8 | –
